Data as given in patent publication US20220143140A1, “ANTI-CD6 ANTIBODY COMPOSITIONS AND METHODS FOR TREATING LUPUS” (Equillium, Inc., priority 2019, published 2022).

Test system: subjects with active lupus nephritis
Experiment: Clinical trial: urinary soluble CD6 and soluble ALCAM before and after EQ001
Type: in vivo, human
Description: 30 ml of urine is collected from a patient (or control individual) and treated with a protease inhibitor cocktail tablet on ice (MiliporeSigma, Burlington, Mass., USA) according to manufacturer's instructions. The sample is centrifuged at 10,000×g for 1 min or 5,000×g for 2 min, and the urine is removed from any pellet, aliquoted, and quick frozen in a dry ice/methanol bath and stored at −80° C. until use.
Several suitable ELISA kits are available commercially and are suitable for use in detecting soluble ALCAM and soluble CD6. For example, human ALCAM DuoSet ELISA (R&D Systems, Minneapolis, Minn.) is utilized according to the manufacturer's instructions to measure soluble ALCAM in a urine sample, and quantification is performed by generating a standard curve. Human CD6 ELISA kit (Sandwich ELISA)(LifeSpan BioSciences, Inc, Seattle, Wash.) is utilized according to the manufacturer's instructions to measure soluble CD6 in a urine sample, and quantification is performed by generating a standard curve.
In order to determine whether high urinary levels of soluble CD6 and soluble ALCAM can be used as a biomarker for sensitivity to treatment with EQ001, a clinical trial is performed in which concentrations of these markers are analyzed in the urine of subjects with active lupus nephritis before and after treatment with EQ001.
Urine samples are collected from the subjects biweekly for 2-3 months to establish individual baseline urinary soluble CD6 and soluble ALCAM concentrations. Treatment is initiated after at least five baseline measurements are obtained. Subjects receive EQ001 or vehicle administered intravenously every two weeks for a total of 5 doses, and a urine sample is collected 3 days after initial dosing, and twice weekly thereafter over the course of the study, which continues for 20 weeks post-initial treatment.
As described above, immediately after collection, samples are treated, aliquoted, and frozen in accordance with the above method, and upon the completion of the study, samples are tested by ELISA.

[1] = Cohort 4, active lupus nephritis, iv every two weeks, 5 doses, ELISA

B1: EQ001: itolizumab, humanized anti-CD6 antibody, produced in CHO cells; VH/VK SEQ ID NOS: 1 and 2 (antibody, V domains shown)
VH: EVQLVESGGGLVKPGGSLKLSCAASGFKFSRYAMSWVRQAPGKRLEWVATISSGGSYIYYPDSVKGRFTISRDNVKNTLYLQMSSLRSEDTAMYYCARRDYDLDYFDSWGQGTLVTVSS
VL: DIQMTQSPSSLSASVGDRVTITCKASRDIRSYLTWYQQKPGKAPKTLIYYATSLADGVPSRFSGSGSGQDYSLTISSLESDDTATYYCLQHGESPFTLGSGTKLEIK
modifications: Made in Lab - synthesized VH amino acid sequence; Made in Lab - synthesized VK amino acid sequence
For B1, the “urinary soluble ALCAM levels” value [1] was “significant decreases”, the “urinary soluble CD6 levels” value [1] was “significant decreases” and the “response to treatment by basal soluble CD6 and soluble ALCAM” value (subjects with the highest basal levels) was “respond most dramatically”.
